# Data reported in paper PMC9881158, “The DEAD-box protein Dbp6 is an ATPase and RNA annealase interacting with the peptidyl transferase center (PTC) of the ribosome” (Nucleic Acids Research, 2023).
# Numbering of substitutions follows the chain as printed.
# T1: Dbp6 (Saccharomyces cerevisiae, UniProt P53734)
# T1 construct: full-length ORF, His6 tag (modified pET-15b, pET-Dbp6), kept; E. coli Rosetta λDE3; ca. 73 kDa; size exclusion fraction, mainly monomer / dimer
# T1 sequence (P53734 1-629): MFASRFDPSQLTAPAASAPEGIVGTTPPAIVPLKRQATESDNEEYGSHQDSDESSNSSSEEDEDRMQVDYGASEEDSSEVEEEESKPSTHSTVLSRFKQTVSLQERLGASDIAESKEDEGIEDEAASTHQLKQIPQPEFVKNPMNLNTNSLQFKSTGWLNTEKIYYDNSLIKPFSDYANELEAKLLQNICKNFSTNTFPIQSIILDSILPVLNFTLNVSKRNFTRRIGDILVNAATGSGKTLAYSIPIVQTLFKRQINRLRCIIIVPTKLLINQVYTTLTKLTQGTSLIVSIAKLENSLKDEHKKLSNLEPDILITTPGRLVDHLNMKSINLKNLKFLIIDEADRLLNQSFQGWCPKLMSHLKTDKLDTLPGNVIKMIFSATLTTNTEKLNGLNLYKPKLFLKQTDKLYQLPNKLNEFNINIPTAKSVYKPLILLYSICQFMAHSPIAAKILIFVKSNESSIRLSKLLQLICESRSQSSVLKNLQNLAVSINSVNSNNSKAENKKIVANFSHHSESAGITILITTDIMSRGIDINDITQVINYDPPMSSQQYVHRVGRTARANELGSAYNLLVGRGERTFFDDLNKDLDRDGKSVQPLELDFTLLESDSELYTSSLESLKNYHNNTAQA
# T2: Dbp6 M-II mutant (motif II, DEAD to DAAD), His6-tagged recombinant, P53734
# T2 chain: T1 sequence (P53734 1-629) with E342A
# T3: Dbp6 M-I mutant (motif I, GTGKT), His6-tagged recombinant, P53734
# T3 chain: T1 sequence (P53734 1-629) with K240A
# T4: Dbp6 (Saccharomyces cerevisiae, UniProt P53734 1-629)
# T4 sequence: T1 sequence (P53734 1-629)
# B1: recombinant His6-Dbp6, P53734 M-II: E to A in motif II (DEAD to DAAD) (protein)
# chain: T1 sequence (P53734 1-629) with E342A
# B2: Dbp6 expressed in yeast as HA-Dbp6 and as Dbp6-ZZ (enzyme, S. cerevisiae, UniProt P53734 1-629, looked up)
# chain: T1 sequence (P53734 1-629)
# notes: DEAD-box protein Dbp6 of yeast (S. cerevisiae); HA-tagged ORF under the GAL1-10 promoter and wild-type DBP6 cassette in pHA113 between a GAR1 promoter and a ZZ tag; also called ZZ-tagged Dbp6; GAL::HA-DBP6; source: yeast strain expressing HA-Dbp6 as well as ZZ-tagged Dbp6, in extract
# B3: recombinant His6-Dbp6 (enzyme, S. cerevisiae, UniProt P53734 1-629, looked up)
# chain: T1 sequence (P53734 1-629)
# notes: DEAD-box protein Dbp6 of yeast (S. cerevisiae), DBP6 ORF cloned downstream of a His tag in modified pET-15b; His6-Dbp6 ca. 73 kDa; SEC fractions also hold some truncated fragments of Dbp6; fraction F17 was used for the in vitro assays; also called WT Dbp6; wild-type Dbp6; source: E. coli Rosetta λDE3, purified (HisTrap FF, Superdex 200); not shown: His6, N-terminal, kept
# B4: recombinant His6-Dbp6, P53734 M-I: K to A in motif I (GTGKT) (protein)
# chain: T1 sequence (P53734 1-629) with K240A
# B5: Dbp6 ΔN mutant (lacking the N-terminal D/E-rich sequence, residues 24–128), His6-tagged recombinant (enzyme, S. cerevisiae, UniProt P53734 1-629, looked up)
# chain: MFASRFDPSQLTAPAASAPEGIVHQLKQIPQPEFVKNPMNLNTNSLQFKSTGWLNTEKIYYDNSLIKPFSDYANELEAKLLQNICKNFSTNTFPIQSIILDSILPVLNFTLNVSKRNFTRRIGDILVNAATGSGKTLAYSIPIVQTLFKRQINRLRCIIIVPTKLLINQVYTTLTKLTQGTSLIVSIAKLENSLKDEHKKLSNLEPDILITTPGRLVDHLNMKSINLKNLKFLIIDEADRLLNQSFQGWCPKLMSHLKTDKLDTLPGNVIKMIFSATLTTNTEKLNGLNLYKPKLFLKQTDKLYQLPNKLNEFNINIPTAKSVYKPLILLYSICQFMAHSPIAAKILIFVKSNESSIRLSKLLQLICESRSQSSVLKNLQNLAVSINSVNSNNSKAENKKIVANFSHHSESAGITILITTDIMSRGIDINDITQVINYDPPMSSQQYVHRVGRTARANELGSAYNLLVGRGERTFFDDLNKDLDRDGKSVQPLELDFTLLESDSELYTSSLESLKNYHNNTAQA
# notes: made from pET-Dbp6; also called pET-ΔN; source: E. coli Rosetta λDE3, purified (HisTrap FF, Superdex 200)
# B6: ss38-mer (ssRNA)
# RNA: CAGAACCGCUACACUGAAAUGAUCAAUUCCGGUCUCCC
# B7: ds38/58 hemi-duplex (dsRNA)
# RNA 1: GGGAGACCGGAAUUCAUCAUUUCAGUGUAGCGGUUCUGACGUGCAAAUCGAUCGUCGA
# RNA 2: B6 RNA
# B8: ss21-mer (ssRNA)
# RNA: GGGAGACCGGAAUUCAUCAUU
# Legend:
# [1] = biological target: T1, Dbp6; assay: ATPase assay, TLC of [α-32P]-ADP; format: biochemical; conditions: 100 μM ATP, 0.8 μM protein, 2 μM ss58-mer RNA, MgCl2 2.5 mM, pH 8, 30°C; trace E. coli ATPase not excluded by the authors
# [2] = biological target: T1, Dbp6; assay: RNA strand annealing assay (ss38-mer / ss58-mer), effect of nucleotide; format: biochemical; conditions: 5 mM ADP, 0.25 μM protein, MgCl2 2.5 mM, pH 8, 30°C; indirect read-out
# [3] = biological target: T1, Dbp6; assay: EMSA, effect on Dbp6 binding to hemi-duplex RNA ds38/[…]; conditions: 0.5-5 mM nucleotide, 0.5 μM protein, 1 nM RNA, MgCl2 2.5 mM, pH 8, 30°C; indirect read-out
# [4] = biological target: T2, Dbp6 M-II mutant (motif II, DEAD to …); assay: UV cross-linking; conditions: chain shown with the change, no RNA included, parent: est. 0.51, read off a plot
# [5] = biological target: the molecule itself; assay: co-IP; immunoprecipitation of Dbp6-ZZ with IgG-sepharose from extracts of a yeast strain expressing HA-Dbp6 and ZZ-tagged Dbp6, in the presence of RNase; western blot
# [6] = biological target: the molecule itself; assay: cross-linking; purified recombinant Dbp6 (1.5 or 0.8 μM) in RB 1× buffer, 15 min at 20°C, UV 312 nm for 6 min on ice; SDS-PAGE, western blot or silver staining; with or without ATP (1 or 5 μM with labelled ATP; 5 mM) and RNA oligonucleotide
# [7] = biological target: the molecule itself; assay: SEC; Superdex 200 gel filtration after HisTrap; GF-ATPase buffer (20 mM Tris–HCl pH 8.0, 100 mM KCl, 10% glycerol, 1 mM DTT, 0.5 mM PMSF); column calibrated with molecular weight standards
# [8] = biological target: T3, Dbp6 M-I mutant (motif I, GTGKT), …; assay: UV cross-linking; conditions: chain shown with the change, no RNA included, parent: est. 0.51, read off a plot
# [9] = biological target: T4, Dbp6; assay: EMSA; no nucleotide; EMSA: 1 nM 32P-RNA, RB 1x (composition not in the material), RNasin, 15 min at 30 C, native PAGE in TBE; bridging: 0.8 uM Dbp6, RB 1x, 15 min at 30 C; conditions: protein: recombinant; tags: N-terminal His6; label: 32P
# [10] = biological target: T4, Dbp6; assay: EMSA; high affinity; no nucleotide; EMSA: 1 nM 32P-RNA, RB 1x (composition not in the material), RNasin, 15 min at 30 C, native PAGE in TBE; bridging: 0.8 uM Dbp6, RB 1x, 15 min at 30 C; conditions: protein: recombinant; tags: N-terminal His6; label: 32P on ss38-mer; 3' overhang 20 nt on strand 1; 38 bp region with one C-C mismatch
# [11] = biological target: T4, Dbp6; assay: EMSA; Dbp6 up to 1.2 uM; EMSA: 1 nM 32P-RNA, RB 1x (composition not in the material), RNasin, 15 min at 30 C, native PAGE in TBE; bridging: 0.8 uM Dbp6, RB 1x, 15 min at 30 C; conditions: protein: recombinant; tags: N-terminal His6; label: 32P
molecule,measurement,setting,value
Nc1ncnc2c1ncn2[C@@H]1O[C@H](COP(=O)(O)OP(=O)(O)OP(=O)(O)O)[C@@H](O)[C@H]1O [ATP],"ATPase assay, TLC of [α-32P]-ADP",[1],This ATPase activity could be attributed to Dbp6
Nc1ncnc2c1ncn2[C@@H]1O[C@H](COP(=O)(O)OP(=O)(O)O)[C@@H](O)[C@H]1O [ADP],"RNA strand annealing assay (ss38-mer / ss58-mer), effect of nucleotide",[2],"In contrast, ADP addition increased the annealing activity of Dbp6."
Nc1ncnc2c1ncn2[C@@H]1O[C@H](COP(=O)(O)OP(=O)(O)OP(O)(O)=S)[C@@H](O)[C@H]1O [ATPγS],"EMSA, effect on Dbp6 binding to hemi-duplex RNA ds38/58",[3],ATPγS had an even stronger effect on Dbp6 binding to the hemi-duplex than ATP.
B1,"other: quantity of oligomers with ATP, relative to without ATP (set at 1)",[4],0.96
B2,fold enrichment over background,[5],~2 fold
B3,fold reduction of oligomerization with 5 mM ATP against no ATP,[6],~2 fold
same,stoichiometry N,[7],2
B4,"other: quantity of oligomers with ATP, relative to without ATP (set at 1)",[8],0.97
B5,binding result,[7],binds
B6,binding result,[9],binds
B7,binding result,[10],binds
B8,binding result,[11],no binding
